This is an account of results in patent US20240307562A1 (ONCOONE RESEARCH AND DEVELOPMENT, published 2024).

Substitutions are numbered along the chain they refer to. Names and notes keep the numbering of the source.

Assay [1] has as its target T1, Recombinant human MIF immobilized on ELISA plates (oxMIF) (human, UniProt P14174 2-115).
T1 construct: also called immobilized MIF; oxidized MIF
Put plainly: ELISA on immobilized human MIF (oxMIF), protein L-HRP detection; EC50 of 4-parameter fit taken as KD. On the procedure:
(§1) Material and Methods: Recombinant human MIF diluted in PBS at 1 μg/ml was immobilized into ELISA plates overnight at 4° C. (transforming MIF to oxMIF according to Thiele et al., 2015). After blocking, serial dilutions of anti-oxMIF antibodies were added to the plates. Finally, bound antibodies were detected using a protein L-HRP conjugate and tetramethylbenzidine (TMB) as substrate. The chromogenic reaction was stopped with 3M H₂SO₄ and OD was measured at 450 nm. Data from different experiments were normalized to the maximal OD of the anti-oxMIF antibody C0008 (=100%) of the respective experiment and EC₅₀ values were determined by 4-parameter fit using GraphPad Prism (and the mean of two experiments is shown).

The target in assay [2] is T1, Recombinant human MIF immobilized on …. The assay can be described thus: ELISA on immobilized human MIF (oxMIF), anti-human IgG (Fc)-HRP detection; EC50 taken as apparent KD. On the procedure: Recombinant human MIF diluted in PBS at 1 μg/ml was immobilized into ELISA plates overnight at 4° C. (transforming MIF to oxMIF according to Thiele et al., 2015). After blocking, serial dilutions of anti-oxMIF antibodies with and without DFO* conjugation (DFO* conjugation is described in Example 19) were added to the plates. Finally, bound antibodies were detected using a Goat anti-human IgG (Fc)-HRP conjugate and tetramethylbenzidine (TMB) as substrate. The chromogenic reaction was stopped with 3M H₂SO₄ and OD was measured at 450 nm. If data from different experiments were combined, the data were normalized to the maximal OD of the anti-oxMIF antibody C0008 (=100%) of the respective experiment and EC₅₀ values were determined by 4-parameter fit using GraphPad Prism (and the mean+/−SEM of two experiments is shown).
Results and conclusion: The binding of the newly designed antibodies towards immobilized MIF (oxMIF) was measured over a broad range of concentrations and the resulting binding curves are illustrated in FIG. 19. The anti-oxMIF antibody C0008 was used as reference for oxMIF binding. […] Additionally, DFO* conjugation of the newly designed Fc-silenced antibodies C0115 and C0118 has not changed their affinity (FIG. 19B).
A general note: ELISA stands for enzyme-linked immunosorbent assay.

In assay [3] the target is human FcγRIIIA receptor, V158 (high affinity allotype) (human, UniProt P08637 17-254). Put plainly: cell-based or functional assay.
Assay [4] deals with T1, Recombinant human MIF immobilized on …. Put plainly: ELISA on immobilized human MIF (oxMIF). As to the method: as §1
Results and conclusion: The binding of the newly designed antibodies towards immobilized MIF (oxMIF) was measured over a broad range of concentrations and the resulting binding curves are illustrated in FIG. 8. The anti-oxMIF antibody C0008 was used as reference for oxMIF binding.

T1 sequence (P14174 2-115 limits assumed): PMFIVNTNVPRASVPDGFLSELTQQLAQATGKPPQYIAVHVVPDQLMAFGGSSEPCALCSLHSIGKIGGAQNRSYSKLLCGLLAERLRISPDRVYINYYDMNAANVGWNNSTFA
Sequence of human FcγRIIIA receptor, V158 (high affinity allotype) (P08637 17-254 F176V): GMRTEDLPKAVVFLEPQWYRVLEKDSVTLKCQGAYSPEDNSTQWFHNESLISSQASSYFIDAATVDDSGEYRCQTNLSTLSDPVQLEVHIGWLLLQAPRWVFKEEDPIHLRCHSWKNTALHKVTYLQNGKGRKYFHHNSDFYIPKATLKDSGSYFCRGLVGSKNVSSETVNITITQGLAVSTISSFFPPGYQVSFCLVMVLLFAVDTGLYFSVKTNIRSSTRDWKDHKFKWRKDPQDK

B1: C0008 (Imalumab control antibody) (antibody, human IgG1, kappa, V domains shown)
VH: EVQLLESGGGLVQPGGSLRLSCAASGFTFSIYSMNWVRQAPGKGLEWVSSIGSSGGTTYYADSVKGRFTISRDNSKNTLYLQMNSLRAEDTAVYYCAGSQWLYGMDVWGQGTTVTVSS
VL: DIQMTQSPSSLSASVGDRVTITCRSSQRIMTYLNWYQQKPGKAPKLLIFVASHSQSGVPSRFRGSGSETDFTLTISGLQPEDSATYYCQQSFWTPLTFGGGTKVEIKR
notes: also called Bax69
Consider B1, for which the values for the Kd in assay [1] and in assay [2] were 700 pM and 190 pM, respectively.

B2: C0078 (antibody, human IgG1, kappa)
heavy: not shown
light: DIQMTQSPSSLSASVGDRVTITCRSSQRIMTYLNWYQQKPGKAPKLLIYVGSHSQSGVPSRFRGSGSETDFTLTISGLQPEDSATYYCQQSFFTPLTFGGGTKVEIKRTVAAPSVFIFPPSDEQLKSGTASVVCLLNNFYPREAKVQWKVDNALQSGNSQESVTEQDSKDSTYSLSSTLTLSKADYEKHKVYACEVTHQGLSSPVTKSFNRGEC
notes: IgG1, wt Fc
Take B2: the Kd in assay [1] stood at 1600 pM.

B3: C0118 (antibody, human IgG1, kappa, L234A L235A)
heavy: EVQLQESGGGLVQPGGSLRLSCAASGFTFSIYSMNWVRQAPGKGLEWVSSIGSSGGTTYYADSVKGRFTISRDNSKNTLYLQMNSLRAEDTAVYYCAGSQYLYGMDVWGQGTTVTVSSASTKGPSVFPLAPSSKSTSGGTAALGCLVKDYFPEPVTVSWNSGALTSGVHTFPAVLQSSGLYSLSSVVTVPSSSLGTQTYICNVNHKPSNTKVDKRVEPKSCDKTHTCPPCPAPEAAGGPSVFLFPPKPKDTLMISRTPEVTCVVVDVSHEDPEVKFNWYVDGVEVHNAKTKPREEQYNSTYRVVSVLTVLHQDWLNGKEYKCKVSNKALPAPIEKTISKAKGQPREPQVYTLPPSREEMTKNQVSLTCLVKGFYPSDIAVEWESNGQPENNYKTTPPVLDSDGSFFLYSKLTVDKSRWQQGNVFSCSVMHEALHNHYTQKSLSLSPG
light: B2 light with M30L, P80S
notes: IgG1 with Fc silencing L234A/L235A (EU numbering); also called Fc silenced anti-oxMIF antibody C0118
As to B3, in assay [2], the Kd stood at 260 pM.

B4: C0073 (antibody, human IgG1, kappa)
heavy: not shown
light: B2 light
notes: IgG1, wt Fc
As for B4, the Kd in assay [1] was found to be 1000 pM.

B5: C0083 (antibody, human IgG1, kappa)
heavy: not shown
light: B2 light
notes: IgG1, wt Fc; also called parent antibody of C0115
Take B5: the “EC50 (read off the curve), ADCC reporter luminescence” value in assay [3] is ~3000 pM. Besides, the Kd in assay [1] came out at 500 pM.

B6: C0077 (antibody, human IgG1, kappa, name in Kabat numbering, V domains shown)
VH: B1 VH with L5Q
VL: B1 VL with Y36F, F49Y, A51G
notes: IgG1, wt Fc
B6: in assay [4], the “fold reduction in affinity compared to C0076” value was 5 fold. Further, in assay [1], the Kd is 5200 pM.

B7: C0115 (antibody, human IgG1, kappa, L234A L235A)
heavy: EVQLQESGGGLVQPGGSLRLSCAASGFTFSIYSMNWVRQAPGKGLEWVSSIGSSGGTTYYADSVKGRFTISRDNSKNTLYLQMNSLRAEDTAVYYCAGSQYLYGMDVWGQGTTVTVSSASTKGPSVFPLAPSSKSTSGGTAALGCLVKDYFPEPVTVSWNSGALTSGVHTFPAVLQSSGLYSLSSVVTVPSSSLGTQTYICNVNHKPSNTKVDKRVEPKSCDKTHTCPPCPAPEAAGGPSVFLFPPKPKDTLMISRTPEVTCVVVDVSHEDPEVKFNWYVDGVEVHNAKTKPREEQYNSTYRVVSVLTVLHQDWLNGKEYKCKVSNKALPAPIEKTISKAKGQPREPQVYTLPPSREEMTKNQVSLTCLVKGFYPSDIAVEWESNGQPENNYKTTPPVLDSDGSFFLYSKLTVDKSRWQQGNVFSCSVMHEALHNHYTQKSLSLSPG
light: B2 light
notes: IgG1 with Fc silencing L234A/L235A (EU numbering); also called Fc silenced anti-oxMIF antibody C0115
For B7, in assay [2], the Kd stood at 280 pM.

B8: C0090 (antibody, human IgG1, kappa)
heavy: not shown
light: B2 light with M30L, P80S
notes: IgG1, wt Fc; also called parent antibody of C0118
On to B8, for which, in assay [3], the “EC50 (read off the curve), ADCC reporter luminescence” value is ~3000 pM. Further, the Kd in assay [1] is 500 pM.

B9: C0076 (antibody, human IgG1, kappa, V domains shown)
VH: B1 VH with L5Q
VL: B1 VL with F49Y, A51G
notes: IgG1, wt Fc
Consider B9, for which, in assay [1], the Kd worked out at 1100 pM.
